# Test results reported in patent publication US20130280807A1, “CELL CULTURE CHAMBER, METHOD FOR PRODUCING SAME, TISSUE MODEL USING CELL CULTURE CHAMBER, AND METHOD FOR PRODUCING SAME” (priority 2010, published 2013).
# B1: NGF: NGF (upstate #01-125; 5 ng/ml) added to culture medium, acting on PC-12 cells (protein, UniProt P01139 122-241, looked up)
# Beta-nerve growth factor: SSTHPVFHMGEFSVCDSVSVWVGDKTTATDIKGKEVTVLAEVNINNSVFRQYFFETKCRASNPVESGCRGIDSKHWNSYCTTTHTFVKALTTDEKQAAWRFIRIDTACVCVLSRKATRRG
# modifications: Beta-nerve growth factor
# notes: NGF (upstate #01-125; 5 ng/ml) added to culture medium, acting on PC-12 cells
# System: PC-12 cells
# Experiment: Neurite extension of PC-12 cells by the effect of NGF through membrane
# Format: cell-based
# Settings: 2 days
# Description: The vitrigel chamber was hung and held in the container (FIGS. 5, (A) and (B)), and PC-12 cells suspended in a culture medium [Dulbecco's modified Eagle's culture medium (GIBCO BRL #11885-084) containing 10% inactivated fetal bovine serum (Sigma #F2442), 20 mM HEPES (GIBCO BRL #15630), 100 units/ml penicillin, and 100 μg/ml streptomycin] were seeded in 2.5×10^3 cells/cm^2 in the vitrigel chamber. A culture medium (1.2 ml), either containing NGF (upstate #01-125; 5 ng/ml) or by itself, was also injected into the container (FIG. 13).
# The same experiment was conducted with the commercially available collagen membrane chamber (Koken; permeable collagen membrane #CM-24 for cell culture).
molecule,measurement,setting,value
B1,"neurite extension of PC-12 cells (cell morphology, phase-contrast microscope)","commercially available collagen membrane chamber (Koken #CM-24), NGF in container",neurite extension was not confirmed
same,"neurite extension of PC-12 cells (cell morphology, phase-contrast microscope)","vitrigel chamber, NGF 5 ng/ml in culture medium in container, acting through vitrigel membrane",neurite extension was confirmed
